Values belong to the binder of their own block, whether it stands above or below them. Ends that are not written are not given here.
Tests used:
Settings in all cases: both partners purified
[1] = target: T1, GST-fused AF9-YEATS domain (peptide array) (human, UniProt P42568 1-138); assay: peptide or protein array; MODified Histone Peptide Array (Active Motif); 10 μM GST-fused YEATS domain, 4 °C overnight; 50 mM Tris-HCl pH 7.6, 250 mM NaCl, 0.1% NP-40, 10% glycerol; detected with anti-GST
T1 construct: GST follows the N-terminal polyhistidine tag; source: purified (HisTrap HP, Superdex 200); not shown: GST, N-terminal, kept
T1 sequence (looked up): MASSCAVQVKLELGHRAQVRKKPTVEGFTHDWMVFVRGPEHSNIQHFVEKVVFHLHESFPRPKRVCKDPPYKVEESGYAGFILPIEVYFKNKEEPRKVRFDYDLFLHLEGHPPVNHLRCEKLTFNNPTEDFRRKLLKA

[2] = target: T2, GST-fused ENL-YEATS domain (peptide array) (human, UniProt Q03111 1-138); assay: as above
T2 construct: GST follows the N-terminal polyhistidine tag; source: purified (HisTrap HP, Superdex 200); not shown: GST, N-terminal, kept
T2 sequence (looked up): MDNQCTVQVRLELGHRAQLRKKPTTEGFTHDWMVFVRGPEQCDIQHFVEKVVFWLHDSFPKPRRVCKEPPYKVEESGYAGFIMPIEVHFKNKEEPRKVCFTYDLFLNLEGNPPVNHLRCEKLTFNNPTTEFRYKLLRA

[3] = target: T3, AF9-YEATS domain (residues 1–138) for X-ray analysis and ITC (human, UniProt P42568 1-138); assay: crystal structure; sitting-drop vapor diffusion at 20 °C; AF9-YEATS with diacetylated H4 peptide; space group P1, two AF9-YEATS molecules in the asymmetric unit
T3 construct: AF9 YEATS domain, human, residues 1–138; cloned in the pCR2.1 vector encoding GST and the polyhistidine tag; source: purified (HisTrap HP, Superdex 200)
T3 sequence (looked up): T1 sequence (looked up)

[4] = target: T3, AF9-YEATS domain (residues 1–138) for …; assay: ITC; protein (100 μM) in the cell, peptide (1 mM) in the syringe; 15 °C; 20 mM Tris-HCl pH 7.6, 500 mM NaCl; single binding site model

B1: H4 (1–19) tail peptide tetra-acetylated at K5/K8/K12/K16 (MODified Histone Peptide Array) (peptide, UniProt P62805 2-20, looked up)
peptide: SGRGKGGKGLGKGGAKRHR
modifications: acetyl-lysine at K5, K8, K12 and K16
notes: histone H4, residues 1–19; source: bought: Active Motif MODified Histone Peptide Array
binding result [1]: binds
binding result [2]: binds

Binder: ARTKQTARKSTGGKAPRKQ (peptide, UniProt P68431 2-20, looked up, acetyl-lysine at K9 and K14, histone H3, residues 1–19) [K9/K14-diacetylated H3 (1–19) peptide]
Kd [4]: 8.5 µM

Binder: ARTK(Ac)QTARK(Ac)STGGKAPRKQ (peptide, UniProt P68431 2-20, looked up, histone H3, residues 1–19) [K4/K9-diacetylated H3 (1–19) peptide]
Kd [4]: 5.8 µM

The remaining lines, values ahead:

binding result [3]: binds
B2: H4 (4–16) K8ac/K12ac peptide (peptide, UniProt P62805 5-17, looked up)
peptide: GKGGK(Ac)GLGK(Ac)GGAK
notes: histone H4, residues 4–16; also called H4K8ac/K12ac peptide; K8/K12-diacetylated H4 peptide

binding result [1]: binds
binding result [2]: binds
B3: H4 (1–19) tail peptide diacetylated at K5/K8 (MODified Histone Peptide Array) (peptide, UniProt P62805 2-20, looked up)
peptide: SGRGKGGKGLGKGGAKRHR
modifications: acetyl-lysine at K5 and K8
notes: as for B1

binding result [3]: binds
B4: H4 (1–12) K5ac/K8ac peptide (peptide, UniProt P62805 2-13, looked up)
peptide: SGRGK(Ac)GGK(Ac)GLGK
notes: histone H4, residues 1–12; also called H4K5ac/K8ac peptide; K5/K8-diacetylated H4 peptide
